Results published in patent US20090196872A1 (KIRIN BEER, published 2009).

Assays:
[1] = target: M2DLTGS peptide (influenza A virus); test: peptide ELISA, avian flu M2 variants
[2] = target: M2LTKGS peptide (influenza A virus); test: peptide ELISA, avian flu M2 variants

B1: human anti-M2 monoclonal antibody no. Z3G1 (recombinant IgG1 type Z3, CHO; ATCC PTA-5967) (antibody, V domains shown)
VH: QVQLVQSGAEVKKPGASVKVSCKASGYTFTSYGISWVRQAPGQGLEWMGWISAYNGNTNYAQKLQGRVTMTTDTSTSTAYMELRSLRSDDTAVYYCARAAAGGYFQHWGQGTLVTVSS
VL: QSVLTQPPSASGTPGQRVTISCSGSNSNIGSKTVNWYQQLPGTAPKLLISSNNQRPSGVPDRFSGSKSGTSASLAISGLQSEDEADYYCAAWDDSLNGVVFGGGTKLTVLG
[1]
  binding result: binds
[2]
  binding result: binds
